Results from the supplement of paper PMC10065799, “High-throughput profiling of sequence recognition by tyrosine kinases and SH2 domains using bacterial peptide display” (eLife, 2023).

How the values were obtained:
EPHB1 = EPHB1 (UniProt P54762); assay: phosphorylation enrichment, bacterial display (enrichment ratio); higher = better substrate or ligand; peptides without Tyr show the background
Hck = Hck (UniProt P08631); assay: as above
Fes = Fes (UniProt P07332); assay: as above
Fyn = Fyn (UniProt P06241); assay: as above
Fyn, sequence (P06241 whole entry, looked up): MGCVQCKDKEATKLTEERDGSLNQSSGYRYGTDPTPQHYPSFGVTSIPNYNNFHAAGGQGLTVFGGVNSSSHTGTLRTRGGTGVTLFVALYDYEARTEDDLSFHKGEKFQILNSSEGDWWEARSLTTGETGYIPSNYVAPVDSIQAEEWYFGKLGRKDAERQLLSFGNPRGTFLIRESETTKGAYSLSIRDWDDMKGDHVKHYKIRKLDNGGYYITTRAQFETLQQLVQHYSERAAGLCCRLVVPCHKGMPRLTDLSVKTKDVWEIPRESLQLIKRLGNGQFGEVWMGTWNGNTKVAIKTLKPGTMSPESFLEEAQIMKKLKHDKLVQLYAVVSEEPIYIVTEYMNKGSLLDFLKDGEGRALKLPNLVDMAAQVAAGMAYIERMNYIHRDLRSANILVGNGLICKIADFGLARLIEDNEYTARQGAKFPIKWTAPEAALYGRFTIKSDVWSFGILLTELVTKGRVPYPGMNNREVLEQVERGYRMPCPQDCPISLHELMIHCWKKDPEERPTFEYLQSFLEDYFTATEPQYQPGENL

FGFR3 = FGFR3 (UniProt P22607); assay: as above
MERTK = MERTK (UniProt Q12866); assay: as above
MERTK, sequence (Q12866 whole entry, looked up): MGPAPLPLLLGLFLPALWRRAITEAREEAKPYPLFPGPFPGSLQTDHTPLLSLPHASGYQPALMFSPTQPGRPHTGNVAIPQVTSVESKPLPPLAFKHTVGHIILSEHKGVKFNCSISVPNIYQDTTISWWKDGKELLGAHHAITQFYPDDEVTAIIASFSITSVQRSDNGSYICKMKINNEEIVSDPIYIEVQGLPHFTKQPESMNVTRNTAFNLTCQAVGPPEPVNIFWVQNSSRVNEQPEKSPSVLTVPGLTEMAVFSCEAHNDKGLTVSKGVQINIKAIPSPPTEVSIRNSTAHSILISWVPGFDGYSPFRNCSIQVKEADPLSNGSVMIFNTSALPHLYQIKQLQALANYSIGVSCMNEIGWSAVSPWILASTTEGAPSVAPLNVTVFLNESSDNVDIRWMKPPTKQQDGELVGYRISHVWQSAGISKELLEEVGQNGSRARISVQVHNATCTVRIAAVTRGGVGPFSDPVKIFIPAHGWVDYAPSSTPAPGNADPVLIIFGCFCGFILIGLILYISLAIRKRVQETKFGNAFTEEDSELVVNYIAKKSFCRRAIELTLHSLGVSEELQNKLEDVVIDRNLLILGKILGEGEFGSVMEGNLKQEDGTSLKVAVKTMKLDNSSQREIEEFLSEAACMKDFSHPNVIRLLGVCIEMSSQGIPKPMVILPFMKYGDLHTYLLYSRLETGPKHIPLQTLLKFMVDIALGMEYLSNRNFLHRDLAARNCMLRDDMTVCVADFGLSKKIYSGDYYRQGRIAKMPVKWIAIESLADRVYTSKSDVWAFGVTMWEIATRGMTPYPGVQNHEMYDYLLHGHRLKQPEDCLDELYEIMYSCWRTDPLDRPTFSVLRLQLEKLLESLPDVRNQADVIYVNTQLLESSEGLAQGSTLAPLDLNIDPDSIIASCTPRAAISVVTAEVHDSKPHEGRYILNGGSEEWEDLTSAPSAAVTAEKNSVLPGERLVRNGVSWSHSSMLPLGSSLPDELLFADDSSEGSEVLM

c-Src = assay: as above
Jak2 = Jak2 (UniProt O60674); assay: as above
Jak2, sequence (O60674 whole entry, looked up): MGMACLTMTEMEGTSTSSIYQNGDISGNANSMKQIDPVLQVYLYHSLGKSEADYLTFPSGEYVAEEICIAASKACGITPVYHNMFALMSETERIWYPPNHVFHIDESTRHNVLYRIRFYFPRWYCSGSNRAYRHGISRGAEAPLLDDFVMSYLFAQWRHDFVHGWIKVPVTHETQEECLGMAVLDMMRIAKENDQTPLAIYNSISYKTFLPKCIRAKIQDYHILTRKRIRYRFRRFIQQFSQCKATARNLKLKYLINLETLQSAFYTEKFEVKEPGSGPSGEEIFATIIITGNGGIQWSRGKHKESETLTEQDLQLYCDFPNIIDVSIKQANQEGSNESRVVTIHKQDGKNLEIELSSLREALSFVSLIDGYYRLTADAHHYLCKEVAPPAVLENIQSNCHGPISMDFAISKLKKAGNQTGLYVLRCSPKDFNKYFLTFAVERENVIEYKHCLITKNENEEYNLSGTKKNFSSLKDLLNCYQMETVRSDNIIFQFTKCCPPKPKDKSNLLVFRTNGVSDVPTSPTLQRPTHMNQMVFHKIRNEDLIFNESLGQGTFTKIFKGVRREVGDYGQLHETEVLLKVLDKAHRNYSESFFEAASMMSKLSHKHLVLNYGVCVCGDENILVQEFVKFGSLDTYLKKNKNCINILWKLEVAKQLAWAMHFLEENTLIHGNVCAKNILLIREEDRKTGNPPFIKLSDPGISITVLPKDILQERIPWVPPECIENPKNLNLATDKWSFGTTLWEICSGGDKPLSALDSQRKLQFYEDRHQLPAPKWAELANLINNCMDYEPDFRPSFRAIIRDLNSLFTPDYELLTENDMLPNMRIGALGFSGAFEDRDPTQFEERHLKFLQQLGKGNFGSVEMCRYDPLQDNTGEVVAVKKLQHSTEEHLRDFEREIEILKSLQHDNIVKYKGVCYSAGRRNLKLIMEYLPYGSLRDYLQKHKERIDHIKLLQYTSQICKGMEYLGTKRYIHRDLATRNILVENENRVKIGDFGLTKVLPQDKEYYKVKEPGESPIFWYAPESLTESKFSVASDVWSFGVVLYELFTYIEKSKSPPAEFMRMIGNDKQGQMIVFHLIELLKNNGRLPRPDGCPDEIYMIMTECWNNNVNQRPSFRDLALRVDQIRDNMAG

c-Abl (mouse) = assay: as above
FGFR1 = FGFR1 (UniProt P11362); assay: as above
FGFR1, sequence (P11362 whole entry, looked up): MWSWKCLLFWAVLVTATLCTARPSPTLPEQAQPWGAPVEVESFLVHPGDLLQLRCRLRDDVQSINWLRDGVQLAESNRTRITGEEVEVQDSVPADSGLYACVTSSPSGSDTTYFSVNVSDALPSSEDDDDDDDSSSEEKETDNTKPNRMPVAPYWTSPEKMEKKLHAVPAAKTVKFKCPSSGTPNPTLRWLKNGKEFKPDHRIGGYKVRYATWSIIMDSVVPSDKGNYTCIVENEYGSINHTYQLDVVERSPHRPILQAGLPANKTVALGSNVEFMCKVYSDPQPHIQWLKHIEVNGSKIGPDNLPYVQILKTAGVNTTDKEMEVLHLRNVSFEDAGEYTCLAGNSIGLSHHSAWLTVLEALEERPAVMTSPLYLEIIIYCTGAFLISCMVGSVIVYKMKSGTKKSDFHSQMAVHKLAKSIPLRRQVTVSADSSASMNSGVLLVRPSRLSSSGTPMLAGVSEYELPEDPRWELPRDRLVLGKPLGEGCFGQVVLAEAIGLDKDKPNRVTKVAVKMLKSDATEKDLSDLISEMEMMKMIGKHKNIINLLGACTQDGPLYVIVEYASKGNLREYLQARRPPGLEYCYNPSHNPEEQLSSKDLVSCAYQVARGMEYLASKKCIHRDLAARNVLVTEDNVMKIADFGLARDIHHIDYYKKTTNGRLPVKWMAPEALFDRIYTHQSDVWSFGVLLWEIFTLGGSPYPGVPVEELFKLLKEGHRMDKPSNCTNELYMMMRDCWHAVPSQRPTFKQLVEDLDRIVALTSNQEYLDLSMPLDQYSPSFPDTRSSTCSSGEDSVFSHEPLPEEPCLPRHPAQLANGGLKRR

EPHB2 = EPHB2 (UniProt P29323); assay: as above
AncSZ = assay: as above
Fer (mouse) = assay: as above
SHP2-C SH2 = assay: SH2 binding enrichment of the phosphorylated peptide, bacterial display (enrichment ratio); higher = better substrate or ligand; peptides without Tyr show the background
Grb2 SH2 = Grb2 SH2 (UniProt P62993); assay: as above
Grb2 SH2, sequence (P62993 whole entry, looked up): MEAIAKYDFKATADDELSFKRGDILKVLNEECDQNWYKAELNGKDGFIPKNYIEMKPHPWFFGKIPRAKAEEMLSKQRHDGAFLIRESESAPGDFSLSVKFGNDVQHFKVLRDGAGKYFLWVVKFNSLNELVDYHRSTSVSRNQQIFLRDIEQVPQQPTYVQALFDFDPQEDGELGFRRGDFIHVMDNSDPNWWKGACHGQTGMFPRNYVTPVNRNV

c-Src SH2 = assay: as above
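Throughout, for SH2 binding enrichment of the phosphorylated peptide, bacterial display: peptide library displayed on the E. coli surface as eCPX fusions, selected cells deep-sequenced, score is each peptide's frequency after selection divided by its frequency in the input.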
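Throughout, for phosphorylation enrichment, bacterial display: 11-residue human phosphosite peptides and single-mutation variants displayed on the E. coli surface, counted by deep sequencing, each peptide's frequency after selection divided by its frequency in the unselected input library; frequency after pTyr selection over input frequency; kinase dosed for 20-30% of maximal phosphorylation in three min.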

Hck, sequence (P08631 whole entry, looked up): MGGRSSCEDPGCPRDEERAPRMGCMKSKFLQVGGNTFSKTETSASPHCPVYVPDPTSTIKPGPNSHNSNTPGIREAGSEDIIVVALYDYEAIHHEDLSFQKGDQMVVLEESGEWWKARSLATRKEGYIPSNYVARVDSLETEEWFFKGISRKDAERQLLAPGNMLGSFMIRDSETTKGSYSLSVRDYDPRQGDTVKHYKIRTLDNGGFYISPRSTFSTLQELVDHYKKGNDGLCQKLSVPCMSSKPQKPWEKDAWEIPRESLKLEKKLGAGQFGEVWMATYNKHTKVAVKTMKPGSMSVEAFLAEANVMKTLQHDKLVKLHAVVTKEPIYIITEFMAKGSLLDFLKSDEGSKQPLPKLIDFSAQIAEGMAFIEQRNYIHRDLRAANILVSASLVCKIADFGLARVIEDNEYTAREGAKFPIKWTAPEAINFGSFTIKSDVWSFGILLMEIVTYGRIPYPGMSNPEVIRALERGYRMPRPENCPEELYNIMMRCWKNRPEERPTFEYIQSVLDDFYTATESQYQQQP
Fes, sequence (P07332 whole entry, looked up): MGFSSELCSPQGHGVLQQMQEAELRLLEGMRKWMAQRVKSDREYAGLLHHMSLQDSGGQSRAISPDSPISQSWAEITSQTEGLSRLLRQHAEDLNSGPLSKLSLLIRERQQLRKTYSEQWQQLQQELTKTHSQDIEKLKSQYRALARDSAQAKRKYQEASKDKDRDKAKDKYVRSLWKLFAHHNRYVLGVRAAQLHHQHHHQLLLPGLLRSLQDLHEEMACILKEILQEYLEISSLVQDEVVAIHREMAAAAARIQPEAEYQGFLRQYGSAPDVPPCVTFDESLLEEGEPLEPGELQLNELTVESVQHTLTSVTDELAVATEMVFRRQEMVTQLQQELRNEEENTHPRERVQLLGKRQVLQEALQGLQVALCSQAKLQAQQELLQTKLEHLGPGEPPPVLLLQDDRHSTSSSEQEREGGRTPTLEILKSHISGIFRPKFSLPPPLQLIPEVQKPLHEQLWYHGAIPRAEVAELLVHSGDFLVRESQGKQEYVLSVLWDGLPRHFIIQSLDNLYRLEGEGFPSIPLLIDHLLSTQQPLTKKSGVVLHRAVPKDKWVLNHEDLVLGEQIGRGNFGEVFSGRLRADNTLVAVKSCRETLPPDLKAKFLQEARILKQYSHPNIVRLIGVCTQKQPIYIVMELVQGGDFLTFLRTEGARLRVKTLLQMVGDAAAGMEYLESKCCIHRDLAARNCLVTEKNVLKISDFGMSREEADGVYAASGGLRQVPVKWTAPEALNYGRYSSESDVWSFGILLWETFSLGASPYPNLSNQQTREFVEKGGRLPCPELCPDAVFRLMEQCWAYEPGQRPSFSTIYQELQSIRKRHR

Row | Sequence | phosphorylation enrichment (EPHB1) | phosphorylation enrichment (Hck) | phosphorylation enrichment (Fes) | phosphorylation enrichment (Fyn) | phosphorylation enrichment (FGFR3) | phosphorylation enrichment (MERTK) | phosphorylation enrichment (c-Src) | phosphorylation enrichment (Jak2) | phosphorylation enrichment (c-Abl (mouse)) | phosphorylation enrichment (FGFR1) | phosphorylation enrichment (EPHB2) | phosphorylation enrichment (AncSZ) | phosphorylation enrichment (Fer (mouse)) | SH2 binding enrichment (SHP2-C SH2) | SH2 binding enrichment (Grb2 SH2) | SH2 binding enrichment (c-Src SH2)
1 | LAAAGYDVEKN [H1-3_Y72] | 0.463 | 0.692 | 1.03 | 0.493 | 0.658 | 0.54 | 0.365 | 0.711 | 0.582 | 0.51 | 0.482 | 0.909 | 0.436 | 0.791 | 0.723 | 0.484
2 | DLSEVYKPCRK [CCDC93_Y176_R179C] | 0.483 | 0.506 | 0.935 | 0.451 | 0.668 | 0.419 | 0.405 | 0.829 | 0.729 | 0.53 | 0.532 | 0.847 | 0.453 | 0.853 | 0.963 | 0.528
3 | SLGKGYSVGGC [MC4R_Y35_D37V] | 0.523 | 0.434 | 0.898 | 0.432 | 0.627 | 0.354 | 0.384 | 0.846 | 0.593 | 0.456 | 0.501 | 0.724 | 0.484 | 0.867 | 0.888 | 0.517
4 | RSRSPYSPVLR [CDK13_Y399] | 0.476 | 0.628 | 0.854 | 0.551 | 0.584 | 0.674 | 0.701 | 0.563 | 0.763 | 1.06 | 0.477 | 0.917 | 0.423 | 1.47 | 1.2 | 0.66
5 | PVQAAYKKVVA [HBB_Y131_Q132K] | 0.545 | 0.479 | 0.762 | 0.506 | 0.485 | 0.578 | 0.687 | 0.486 | 0.73 | 0.534 | 0.278 | 0.645 | 0.226 | 0.613 | 0.834 | 0.524
6 | HFGNNYTDVLQ [MACC1_Y803_R804T_YF] | 1.61 | 0.426 | 0.967 | 0.517 | 0.733 | 0.638 | 0.66 | 0.578 | 0.761 | 0.544 | 0.471 | 0.874 | 0.573 | 3.84 | 0.711 | 3.44
7 | LHAAAYWNALA [UQCRC2_Y182_R183W] | 0.419 | 0.428 | 0.882 | 0.388 | 0.564 | 0.461 | 0.424 | 0.926 | 0.582 | 0.379 | 0.572 | 0.769 | 0.385 | 1.24 | 1.36 | 1.11
8 | EPDSLYGCGGG [ATM_Y2019] | 0.663 | 2.94 | 1.26 | 2.06 | 0.674 | 0.6 | 2.33 | 1.11 | 1.04 | 0.619 | 0.766 | 1.01 | 1.06 | 0.854 | 0.977 | 0.619
